{"source": "patent US8221773B2", "about": "“Hydrogels and uses thereof” (University of Delaware, priority 2004, dated 2012)", "key": {"[1]": {"assay": "CD spectroscopy of peptide folding (random coil vs β-sheet)", "type": "physicochemical", "description": "Time-dependent circular dichroism (CD) studies support a hydrogelation mechanism consistent with intramolecular hairpin formation followed by self-assembly. […] At temperatures >25° C. the folding and self-assembly of MAX1 occurs on the order of seconds. […] This behavior is consistent across all spectro- and microscopic methods used to interrogate MAX1. For example, at micromolar concentrations used for the CD studies shown in FIGS. 4A and 4B, self-assembly takes hours at 20° C. At millimolar concentrations, such as those used in the rheological studies described below, self-assembly leading to hydrogel takes minutes at 20° C.\nThe reversibility of the folding and self-assembly process was investigated by measuring θ216 as a function of pH and time as shown in FIG. 4C. CD of a stirred solution of MAX1 at pH 5.5 indicates random coil conformation. Adjusting the pH to 9.0 by the addition of NaOH results in β-sheet formation as expected. However, subsequent adjustment of the pH to 6.0 results in complete loss of sheet signal and full recovery of random coil signal. […] Again, this reversible behavior is not observed in hydrogels formed from amyloid/prion-like fibrils.\nIn some embodiments of the invention, various functionalities (e.g., cell adhesion epitopes, receptor agonists, receptor antagonists, ligands, small molecules, etc) may be incorporated into the hairpin hydrogel scaffold. One way to accomplish this would be to functionalize one or more amino acid side chains of the peptide. […] In some embodiments, the moieties to be incorporated at a particular side chain may be much larger (e.g. RGD-based motifs) and may contain charged residues. MAX5 (VKVKVKVKV^DPPTKVKEKVKV-NH2) was prepared to investigate the possibility of incorporating a charged residue on the hydrophobic face of MAX1. The sequence contains a glutamic acid residue at position 16 which is negatively charged at basic pH where MAX1 normally folds and assembles. […] However, alterations to the hydrophilic face of MAX1 are well tolerated. Sequences in which one or two lysine residues are replaced with other residues such as cysteine, serine, and glutamic acid are capable of folding and self-assembly into rigid hydrogels (data not shown).\nThe peptides described above contain identical turn sequences, namely (-V^DPPT-). This sequence has a strong propensity to form a type II′ turn and therefore helps to drive intramolecular folding. Since intramolecular folding must occur prior to self-assembly, alterations to this turn sequence that inhibit turn structure formation can be used to modulate intramolecular folding and self-assembly leading to hydrogelation. MAX9 was prepared to probe the importance of the turn region (VKVKVKVKV^LPPTKVKVKVKV-NH2). […]"}, "NIH 3T3 fibroblasts": {"system": "NIH 3T3 fibroblasts", "assay": "3H thymidine cell seeding / proliferation assay", "type": "cell-based, mouse", "details": "2 wt. % hydrogel, 48 hours", "text": "A quantitative assay that could be used to measure the rate of cell proliferation was developed. This allows gels having different material properties and constituent peptide sequences to be compared in terms of how well they support proliferation. Standard colorimetric assays such as the MTT and XTT have proven unsuitable for use with hydrogels of the invention. These assays rely on the ability of cells to metabolize tetrazolium derivatives to their corresponding colored formazan analogs. The analogs permeate into the hairpin hydrogel and become immobilized making subsequent quantification by UV spectroscopy unreliable. This problem has been addressed by utilizing ^3H thymidine-based assays in which thymidine is incorporated into proliferating cells undergoing DNA replication. […] The assay is two-fold. […] Second, a proliferation rate may be determined for a given material by seeding the cells (at optimal density) onto the material and determining the number of cells undergoing DNA replication at discrete time points up to 48 hours when confluency is reached. […] Unincorporated thymidine may be washed out (washes may be assayed until ^3H thymidine is no longer detected) and the cells sacrificed for scintillation counting. […] Therefore, for each new material, similar cell seeding experiments may be performed before rates of proliferation are determined. […]"}, "[2]": {"assay": "Oscillatory rheology of peptide hydrogels (storage and loss moduli)", "type": "physicochemical", "details": "2 wt %, pH 9, 20° C, 6 Hz, 1% strain"}}, "note": "Entries after “also recorded” stand apart in the source; their conditions may differ. Where no end group is shown, it is not given here.", "data": [{"sequence": "VKVKVKVK V^DPPT KVKVKVKV-NH2 (not fully specified (C-terminus)) [MAX1]", "values": [{"measurement": "time to plateau of β-sheet formation (ellipticity at 218 nm)", "setting": "[1]; 2.0 wt %, pH 7.4, 150 mM KF, 37° C", "value": 15, "unit": "min"}, {"measurement": "reversibility of folding and self-assembly with pH", "setting": "[1]; stirred 300 μM solution, pH 5.5 to 9.0 to 6.0, 20° C", "value": "reversible"}, {"measurement": "optimal cell seeding density for 2 day proliferation assays", "setting": "NIH 3T3 fibroblasts", "value": "40,000 fibroblasts"}, {"measurement": "cell proliferation on hydrogel versus tissue culture polystyrene control", "setting": "NIH 3T3 fibroblasts; 3H thymidine counts", "value": "more cells have grown on the hydrogel than on the control surface; also recorded: higher than the control"}, {"measurement": "gel storage modulus after 30 minutes", "setting": "[2]", "value": "~600", "unit": "Pa"}]}]}
